According to patent publication US20240301049A1 (Ablynx, published 2024):
“And” between values parts separate entries of the source, which are not always exact repeats. Identical values can stand only once.

What was measured:
human TNF-α [1] = biological target: T1, human TNF-α (human, UniProt P01375 77-233); assay: in-solution affinity, Gyrolab
T1 construct: also called hTNF-α; recombinant soluble hTNF-α
Description: (§1) Fitting of the dilution series was done using Gyrolab Analysis software, where KD- and receptor-controlled curves were analyzed to determine the KD value.

mouse serum albumin = biological target: T2, mouse serum albumin (mouse, UniProt P07724 25-608); assay: in-solution affinity, Gyrolab
T2 construct: also called mouse SA
Description: as §1

cyno serum albumin = biological target: T3, cyno serum albumin (cynomolgus monkey, UniProt A2V9Z4 25-608); assay: in-solution affinity, Gyrolab
T3 construct: also called cyno SA
Description: as §1

human IL-6 [2] = biological target: T4, human IL-6 (human, UniProt P05231 30-212); assay: in-solution affinity, Gyrolab
T4 construct: also called hIL-6
Description: as §1

human serum albumin = biological target: T5, human serum albumin (human, UniProt P02768 25-609); assay: in-solution affinity, Gyrolab
T5 construct: also called HSA; human SA
Description: as §1

cyno TNF-α [3] = biological target: T6, cyno TNF-α (cynomolgus monkey, UniProt P79337 77-233); assay: in-solution affinity, Gyrolab
T6 construct: also called cynomolgus monkey TNF-α
Description: as §1

human TNF-α [4] = biological target: T1, human TNF-α; assay: cell-based or functional assay
cyno TNF-α [5] = biological target: T6, cyno TNF-α; assay: cell-based or functional assay
human TNF-α [6] = biological target: T1, human TNF-α; assay: cell-based or functional assay; remark: listed apart in the source
cyno IL-6 [7] = biological target: T7, cyno IL-6 (cynomolgus monkey, UniProt P79341 28-212, limits assumed); assay: cell-based or functional assay
T7 sequence (looked up): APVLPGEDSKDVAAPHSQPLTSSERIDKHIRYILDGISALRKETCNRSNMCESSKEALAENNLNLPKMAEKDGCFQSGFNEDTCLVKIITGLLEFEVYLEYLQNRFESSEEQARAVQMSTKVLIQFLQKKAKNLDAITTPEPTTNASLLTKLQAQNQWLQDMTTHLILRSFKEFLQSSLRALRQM

human IL-6 [8] = biological target: T4, human IL-6; assay: cell-based or functional assay
cyno TNF-α [9] = biological target: T6, cyno TNF-α; assay: cell-based or functional assay; remark: listed apart in the source
human oncostatin M = biological target: T8, human oncostatin M (human, UniProt P13725 26-221, limits assumed); assay: SPR (ProteOn XPR36), target immobilized
T8 construct: also called OSM
T8 sequence (looked up): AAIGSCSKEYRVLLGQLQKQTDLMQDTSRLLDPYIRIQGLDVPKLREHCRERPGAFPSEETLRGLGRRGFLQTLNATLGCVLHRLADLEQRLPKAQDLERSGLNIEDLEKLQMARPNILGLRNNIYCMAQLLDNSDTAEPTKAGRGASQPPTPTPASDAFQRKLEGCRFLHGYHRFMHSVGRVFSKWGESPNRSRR

human CD30L = biological target: T9, human CD30L (human, UniProt P32971 63-234, limits assumed); assay: SPR (ProteOn XPR36), target immobilized
T9 sequence (looked up): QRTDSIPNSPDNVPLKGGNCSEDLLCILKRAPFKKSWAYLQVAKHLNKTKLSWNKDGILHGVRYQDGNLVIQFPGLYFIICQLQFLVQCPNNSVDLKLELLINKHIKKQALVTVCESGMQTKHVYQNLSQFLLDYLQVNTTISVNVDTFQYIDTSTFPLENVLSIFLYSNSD

human RANKL = biological target: T10, human RANKL (human, UniProt O14788 140-317, limits assumed); assay: SPR (ProteOn XPR36), target immobilized
T10 construct: also called hRANKL
T10 sequence (looked up): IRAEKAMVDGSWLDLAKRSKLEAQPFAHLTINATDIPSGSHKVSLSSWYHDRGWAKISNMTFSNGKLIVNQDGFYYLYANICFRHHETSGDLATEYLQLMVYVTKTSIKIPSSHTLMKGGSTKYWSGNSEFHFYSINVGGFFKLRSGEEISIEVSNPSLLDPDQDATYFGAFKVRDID

human IL11 = biological target: T11, human IL11 (human, UniProt P20809 22-199); assay: SPR (ProteOn XPR36), target immobilized
T11 sequence (looked up): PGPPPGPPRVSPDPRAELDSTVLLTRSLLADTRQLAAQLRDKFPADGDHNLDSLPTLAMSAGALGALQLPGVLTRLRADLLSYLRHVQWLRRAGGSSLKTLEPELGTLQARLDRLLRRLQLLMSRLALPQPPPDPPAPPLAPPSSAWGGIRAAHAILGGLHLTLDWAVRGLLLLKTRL

human FASL = biological target: T12, human FASL (human, UniProt P48023 134-281, limits assumed); assay: SPR (ProteOn XPR36), target immobilized
T12 construct: also called hFASL
T12 sequence (looked up): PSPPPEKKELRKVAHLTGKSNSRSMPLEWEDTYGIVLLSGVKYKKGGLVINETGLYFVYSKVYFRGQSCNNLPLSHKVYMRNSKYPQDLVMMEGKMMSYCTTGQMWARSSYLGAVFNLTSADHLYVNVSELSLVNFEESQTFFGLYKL

[10] = biological target: T13, human membrane TNFα expressed on HEK293H cells (human, UniProt P01375 1-233); assay: flow cytometry, HEK293H cells expressing human membrane TNFα, with 30 µM HSA, 24 h
T13 construct: whole, on cells; also called membrane expressed TNFα
Description: Briefly, cells were fixed with 4% paraformaldehyde and 0.1% glutaraldehyde in PBS (to increase detection of membrane bound TNFα). […] Cells were washed 3 times and subsequently incubated with an anti-VHH mAb (ABH00119) for 30 min at 4° C., washed again, and incubated for 30 min at 4° C. with a goat anti-mouse or anti-human PE labeled antibody. Samples were washed and resuspended in FACS Buffer (D-PBS with 10% FBS and 0.05% sodium azide supplemented with 5 nM TOPRO3). Cell suspensions were then analyzed on an iQuescreener. EC50 values were calculated using GraphPad Prism.

cyno IL-6 [11] = biological target: T7, cyno IL-6; assay: cell-based or functional assay; remark: listed apart in the source

T13 sequence (P01375 whole entry): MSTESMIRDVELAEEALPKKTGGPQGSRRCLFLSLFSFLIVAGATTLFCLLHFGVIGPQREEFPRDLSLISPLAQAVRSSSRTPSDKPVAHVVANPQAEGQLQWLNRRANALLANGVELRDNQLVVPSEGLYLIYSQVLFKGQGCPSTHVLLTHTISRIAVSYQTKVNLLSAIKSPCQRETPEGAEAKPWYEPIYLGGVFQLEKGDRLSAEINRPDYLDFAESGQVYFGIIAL
T1 sequence (P01375 77-233 limits assumed): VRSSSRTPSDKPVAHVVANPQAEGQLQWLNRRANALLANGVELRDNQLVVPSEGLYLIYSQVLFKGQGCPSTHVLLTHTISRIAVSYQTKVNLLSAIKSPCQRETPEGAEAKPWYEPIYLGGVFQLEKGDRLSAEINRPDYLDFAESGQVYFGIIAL
T3 sequence (A2V9Z4 25-608 limits assumed): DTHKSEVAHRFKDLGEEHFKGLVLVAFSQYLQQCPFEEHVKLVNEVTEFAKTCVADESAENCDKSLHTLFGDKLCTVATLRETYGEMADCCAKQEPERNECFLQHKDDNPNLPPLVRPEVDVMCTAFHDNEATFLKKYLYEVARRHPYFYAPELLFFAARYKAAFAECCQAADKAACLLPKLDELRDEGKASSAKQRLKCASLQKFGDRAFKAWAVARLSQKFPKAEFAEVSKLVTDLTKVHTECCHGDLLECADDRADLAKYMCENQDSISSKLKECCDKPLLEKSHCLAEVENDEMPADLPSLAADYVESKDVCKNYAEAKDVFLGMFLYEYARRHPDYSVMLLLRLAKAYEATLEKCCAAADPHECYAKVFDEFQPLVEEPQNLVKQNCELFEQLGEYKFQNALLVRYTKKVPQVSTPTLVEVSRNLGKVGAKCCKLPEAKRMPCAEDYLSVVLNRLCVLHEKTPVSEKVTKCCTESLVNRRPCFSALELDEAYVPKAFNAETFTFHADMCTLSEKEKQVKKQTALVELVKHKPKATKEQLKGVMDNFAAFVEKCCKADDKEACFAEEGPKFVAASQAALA
T6 sequence (P79337 77-233 limits assumed): as the sequence (P01375 77-233 limits assumed) above, with L37V, R44T, T72N, R138L counted along it
T5 sequence (P02768 25-609 limits assumed): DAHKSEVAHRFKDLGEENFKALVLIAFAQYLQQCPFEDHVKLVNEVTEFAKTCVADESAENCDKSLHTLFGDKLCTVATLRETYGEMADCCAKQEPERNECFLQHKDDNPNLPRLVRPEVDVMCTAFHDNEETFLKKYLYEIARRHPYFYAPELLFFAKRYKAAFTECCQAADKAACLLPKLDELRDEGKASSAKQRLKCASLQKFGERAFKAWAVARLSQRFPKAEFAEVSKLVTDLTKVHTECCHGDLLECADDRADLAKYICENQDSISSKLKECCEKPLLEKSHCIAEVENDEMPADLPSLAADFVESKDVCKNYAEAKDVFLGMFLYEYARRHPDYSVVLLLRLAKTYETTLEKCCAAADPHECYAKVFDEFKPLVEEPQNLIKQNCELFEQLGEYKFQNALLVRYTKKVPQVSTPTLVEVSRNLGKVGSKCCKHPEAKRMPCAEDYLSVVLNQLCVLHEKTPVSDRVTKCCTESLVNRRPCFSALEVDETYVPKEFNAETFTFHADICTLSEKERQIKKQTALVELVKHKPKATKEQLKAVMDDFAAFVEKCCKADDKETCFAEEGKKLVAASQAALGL

B1: F027201062 (bispecific antibody)
chain: DVQLVESGGGVVQPGGSLRLSCAASGRTFSNYAMAWFRQAPGKEREFVAVISYAGGRTYYADSVKGRFTISRDNAKNTVYLQMNSLRPEDTALYYCAAVDSPLIATHPRGYDYWGQGTLVTVSSGGGGSGGGSEVQLVESGGGVVQPGGSLRLSCAASGFTFRSFGMSWVRQAPGKGPEWVSSISGSGSDTLYADSVKGRFTISRDNSKNTLYLQMNSLRPEDTALYYCTIGGSLSRSSQGTLVTVSSGGGGSGGGSEVQLVESGGGVVQPGGSLRLSCAASGFTLAYYAIGWFRQAPGKEREGVSCISGSVGTTYYADSVKGRFTISRDNAKNTVYLQMNSLRPEDTALYYCVRSSWFDCGVQGRDLGNEYDYRGQGTLVTVSSGGGGSGGGSEVQLVESGGGVVQPGGSLRLSCTASGFTFSTADMGWFRQAPGKGREFVARISGIDGTTYYDEPVKGRFTISRDNSKNTVYLQMNSLRPEDTALYYCRSPRYADQWSAYDYWGQGTLVKVSSA
notes: anti-IL-6 (17C04, 6B12), anti-HSA (ALB23002), anti-TNF-α (6C11), C-terminal alanine; produced in Pichia pastoris; also called ISVD construct F027201062; Nanobody F027201062
Kd (human TNF-α [1]): 0.0057 nM and 0.0052 nM and 0.0099 nM
Kd (mouse serum albumin): 58.5 nM and 62.2 nM and 56 nM
Kd (cyno serum albumin): 6.7 nM and 4.9 nM and 6.1 nM
Kd (human IL-6 [2]): 0.0073 nM and 0.0053 nM and 0.003 nM
Kd (human serum albumin): 7.6 nM and 6.4 nM and 6.2 nM
Kd (cyno TNF-α [3]): 0.0538 nM and 0.0237 nM and 0.0259 nM
IC50, HEK293_NFκB-NLucP reporter assay (human TNF-α [4]): 0.0757 nM and 0.0257 nM and 0.0586 nM
IC50, HEK293_NFκB-NLucP reporter assay (cyno TNF-α [5]): 0.16 nM and 0.0837 nM and 0.23 nM
IC50 of SEB-induced CCL4 release, human whole blood (human TNF-α [6]): 0.92 nM
IC50 of SEB-induced MCP-1 release, human whole blood (human TNF-α [6]): 3.2 nM
average IC50, NFκB reporter assay (human TNF-α [6]): 0.053 nM
average IC50, IL-6 induced TF-1 proliferation (cyno IL-6 [7]): 0.056 nM
IC50 of IL-17A/sIL-6R induced VEGF-A release, RA-FLS (human IL-6 [8]): 2 nM
average IC50, IL-6 induced TF-1 proliferation (human IL-6 [8]): 0.034 nM
average IC50, NFκB reporter assay (cyno TNF-α [9]): 0.158 nM
binding result (human oncostatin M): no binding (tested: 300 nM)
binding result (human CD30L): no binding (tested: 300 nM)
binding result (human RANKL): no binding (tested: 300 nM)
binding result (human IL11): no binding (tested: 300 nM)
binding result (human FASL): no binding (tested: 300 nM)
EC50 [10]: 0.31 nM and 0.29 nM and 0.36 nM
IC50, IL-6 induced TF-1 proliferation (cyno IL-6 [11]): 0.0646 nM and 0.0592 nM and 0.0434 nM
